# Reference: US20230365705A1 (DYNAMICURE BIOTECHNOLOGY, published 2023)
# T1: Human CD93 recombinant protein (Sino Biological Inc, Catalog #12589-H08H) (human, UniProt Q9NPY3 22-580)
# T1 construct: Biotinylated (EZ-LINK NHS-PEG4 biotin) in the BLI assays; also called hCD93; His-tagged human CD93
# T1 sequence (looked up): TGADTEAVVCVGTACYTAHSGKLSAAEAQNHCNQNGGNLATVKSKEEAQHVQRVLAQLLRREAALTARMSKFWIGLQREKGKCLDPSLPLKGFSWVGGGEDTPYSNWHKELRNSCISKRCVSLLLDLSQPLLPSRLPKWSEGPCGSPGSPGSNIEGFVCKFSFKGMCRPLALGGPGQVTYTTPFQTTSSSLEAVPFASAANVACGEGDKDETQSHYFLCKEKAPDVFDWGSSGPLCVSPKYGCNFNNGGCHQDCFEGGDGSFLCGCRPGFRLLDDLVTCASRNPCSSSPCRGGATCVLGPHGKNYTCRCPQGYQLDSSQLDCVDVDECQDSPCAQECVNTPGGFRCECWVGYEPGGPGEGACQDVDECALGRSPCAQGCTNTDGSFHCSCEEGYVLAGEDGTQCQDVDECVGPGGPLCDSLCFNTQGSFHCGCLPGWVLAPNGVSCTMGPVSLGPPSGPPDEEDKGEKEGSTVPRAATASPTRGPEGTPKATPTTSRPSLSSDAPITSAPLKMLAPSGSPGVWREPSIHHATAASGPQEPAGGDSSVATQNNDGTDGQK
# T2: Human CD93 on cells (human CD93 expressing CHO cells; HUVEC, U937 and KG1a cells) (human, UniProt Q9NPY3 22-652)
# T2 construct: whole, on cells; also called hCD93 expressing CHO cells; hCD93 CHO cells
# T2 sequence (looked up): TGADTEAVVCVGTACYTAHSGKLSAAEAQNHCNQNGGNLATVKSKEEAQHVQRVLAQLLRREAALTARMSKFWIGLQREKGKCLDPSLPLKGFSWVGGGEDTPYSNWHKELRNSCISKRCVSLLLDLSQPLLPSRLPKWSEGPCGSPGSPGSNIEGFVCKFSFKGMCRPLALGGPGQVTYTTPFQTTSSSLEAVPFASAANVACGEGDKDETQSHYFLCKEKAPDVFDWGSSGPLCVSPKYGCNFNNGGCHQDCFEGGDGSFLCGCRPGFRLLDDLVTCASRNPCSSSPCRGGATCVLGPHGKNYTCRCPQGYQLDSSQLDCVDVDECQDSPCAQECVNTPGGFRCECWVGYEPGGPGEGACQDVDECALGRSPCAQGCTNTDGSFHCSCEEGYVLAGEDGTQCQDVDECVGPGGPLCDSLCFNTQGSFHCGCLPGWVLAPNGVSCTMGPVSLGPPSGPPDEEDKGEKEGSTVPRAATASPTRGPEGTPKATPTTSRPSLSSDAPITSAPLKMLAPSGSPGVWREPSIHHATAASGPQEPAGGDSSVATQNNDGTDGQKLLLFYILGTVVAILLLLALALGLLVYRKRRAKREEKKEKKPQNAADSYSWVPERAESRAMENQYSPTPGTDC
# Columns and labels:
# [1] = target: T1, Human CD93 recombinant protein (Sino …); assay: ELISA, His-tagged human CD93 coated, OD450
# Description: His-tagged human CD93 was coated onto a 96 well plate at 1 μg/mL in 1×PBS overnight at 4° C. The plate was washed with ELISA wash buffer (Boston BioProduct, Inc.) and the wells were blocked with ELISA blocking buffer for 1 hour at 37° C. […] The plate was washed with ELISA wash Buffer. […] The plate was washed with ELISA wash Buffer. HRP substrate was added for indirect detection of the antibodies binding to CD93.
# [2] = target: T2, Human CD93 on cells (human CD93 …); assay: flow cytometry titration on human CD93 CHO cells; column head printed kd, unit from the axis log (concentration (M))
# Description: Cells were quenched with media then counted. Cells were resuspended in FACS buffer (ice cold PBS with 0.5% BSA) and human serum was added to 20% (10% final volume) and put on ice for approximately 20 minutes. 5×10⁴ cells were seeded per well in 100 μL and incubated with serial diluted anti-CD93 antibodies in 100 μL on ice for 2 hours. Samples were then washed by spinning samples at 1200 rpm for 5 minutes. Media was discarded and cells were resuspended in 200 μL ice cold FACS buffer. Cells were washed again and resuspended in 100 μL of secondary Antibody, AlexaFluor647 conjugated anti-human IgG or anti-mouse IgG antibodies (Jackson ImmunoResearch), diluted 1:500 in FACS buffer. Plates were covered with foil to protect from like and incubated for 1 hour on ice. Cells were washed again resuspended in 200 μL ice cold FACS buffer. Cells were washed again and were resuspended in 200 μL fixing solution (PBS with 1% formaldehyde). Samples were stored at 4° C. covered in foil, then were acquired in NovoCyte Flow Cytometer and analyzed by NovoExpress software.
# [3] = target: T2, Human CD93 on cells (human CD93 …); assay: flow cytometry titration on HUVEC cells +human serum; column head printed kd, unit from the axis log (concentration (M))
# Description: (§1) Recombinant parental anti-CD93 antibodies were evaluated for their ability to bind to HUVEC cells in the presence or absence of human serum. […] Antibodies were purified using Protein G Sepharose. The resulting antibodies were tested for its binding capacity to a variety of cells that express CD93. […] Cells were quenched with media then counted. Cells were resuspended in FACS buffer (ice cold PBS with 0.5% BSA) and human serum was added to 20% (10% final volume) and put on ice for approximately 20 minutes. 5×10⁴ cells were seeded per well in 100 μL media and incubated with serial diluted anti-CD93 antibodies in 100 μL on ice for 2 hours. Cells were then washed by spinning cells at 1200 rpm for 5 min. Media was discarded and cells were resuspended in 200 μL ice cold FACS buffer. The wash step was repeated and cells were resuspended in 100 μL of secondary antibody, AlexaFluor647 conjugated anti-human IgG or anti-mouse IgG antibodies (Jackson ImmunoResearch), diluted 1:500 in FACS buffer. Plates were blocked from light and incubated 1 hour at 4° C. Cells were then washed again then were resuspended in 200 μL ice cold FACS buffer. Cells were washed again and resuspended in 200 μL fixing solution (PBS with 1% formaldehyde). Samples were stored at 4° C. covered in foil, then were acquired in NovoCyte Flow Cytometer and analyzed by NovoExpress software.
# [4] = target: T2, Human CD93 on cells (human CD93 …); assay: flow cytometry titration on HUVEC cells -human serum; column head printed kd, unit from the axis log (concentration (M))
# Description: as §1
# [5] = target: T2, Human CD93 on cells (human CD93 …); assay: flow cytometry titration on U937 cells -human serum; column head printed kd, unit from the axis log (concentration (M))
# Description: Cells were quenched with media then counted. Cells were resuspended in FACS buffer (ice cold PBS with 0.5% BSA) and put on ice ˜20 min. 5×10⁴ cells were seeded per well in 100 μL and incubated with serial diluted anti-CD93 antibodies in 100 μL on ice for 2 hours. Samples were then washed by spinning samples at 1200 rpm for 5 minutes. Media was discarded and cells were resuspended in 200 μL ice cold FACS buffer. Cells were washed again and resuspended in 100 μL of secondary Antibody, AlexaFluor647 conjugated anti-human IgG or anti-mouse IgG antibodies (Jackson ImmunoResearch), diluted 1:500 in FACS buffer. Plates were covered with foil to protect from light and were incubated for 1 hour on ice. Samples were then washed again and resuspended in 200 μL ice cold FACS buffer. Cells were washed again and resuspended in 200 μL fixing solution (PBS with 1% formaldehyde). Samples were stored at 4° C. covered in foil, ands were subsequently acquired in NovoCyte Flow Cytometer and analyzed by NovoExpress software.
# [6] = target: T2, Human CD93 on cells (human CD93 …); assay: flow cytometry, CHO cells overexpressing human CD93, antibody 0.01ug, mIgG1 as control, APC-A
# [7] = target: T2, Human CD93 on cells (human CD93 …); assay: flow cytometry blocking assay, CHO-hCD93 cells, antibody 50 ug/ml then MMRN2 0.5 ug/ml, APC-A
# Description: (§2) After incubation, the cells were washed with FACS buffer and incubated with anti-His conjugated APC or streptavidin conjugated APC at a ratio of 1:500 for 30 minutes at 4° C. After washing with FACS buffer twice, the samples were analyzed and data acquired in NovoCyte Flow.
# [8] = target: T2, Human CD93 on cells (human CD93 …); assay: flow cytometry blocking assay, CHO-hCD93 cells, antibody 50 ug/ml then MMRN2 0.1 ug/ml, APC-A
# Description: as §2
# [9] = target: T2, Human CD93 on cells (human CD93 …); assay: flow cytometry, CHO-hCD93 cells, APC-A
# [10] = target: T1, Human CD93 recombinant protein (Sino …); assay: BLI (Octet), human CD93; sheet prints Anti-Penta-HIS(HIS1K) biosensor
Binder,EC50 [1] [nM],Kd [2] [nM],Kd [3] [nM],Kd [4] [nM],Kd [5] [nM],also measured
"17B10 (hybridoma) (antibody, V domains shown, Mouse hybridoma monoclonal antibody) VH: QVQLQQSGPELVKPGASVKISCKASGYAFSSYWLNWVKQRPGKGLEWFGRIYPGDGDTDYNGKFKGKATLTADKSSSTAYMQLRSLTSEDSAVYFCVRGDGYWAMDYWGQGTSVTVSS VL: DIVMTQAAFSNPVTLGTSASISCRFSKSLLHSNGITYLYWYLQKPGQSPQLLIYQMSNLASGVPDRFSSSGSGTDFTLRISRVEAEDVGVYYCAQNLELPWTFGGGTKLEIK",0.153,–,–,–,–,–
"17B10-hIgG1 (recombinant parental 17B10-hFc) (antibody, V domains shown, also called recombinant parental 17B10 with the human Fc; 17B10 chimeric) VH: QVQLQQSGPELVKPGASVKISCKASGYAFSSYWLNWVKQRPGKGLEWFGRIYPGDGDTDYNGKFKGKATLTADKSSSTAYMQLRSLTSEDSAVYFCVRGDGYWAMDYWGQGTSVTVSS VL: DIVMTQAAFSNPVTLGTSASISCRFSKSLLHSNGITYLYWYLQKPGQSPQLLIYQMSNLASGVPDRFSSSGSGTDFTLRISRVEAEDVGVYYCAQNLELPWTFGGGTKLEIK",0.0167,–,–,–,–,–
"Recombinant parental 7F3 with a human CH1 domain and mouse IgG1 CH2 and CH3 Fc domains (antibody, V domains shown) VH: QVQLQQSGADLVRPGASVKLSCKASGYTFTDYEMHWVKQTPVYGLEWIGGIDPETGDTAYNQNFKGKATLTADKSSSAAYMELRSLTSEDSAVYYCTNYGNLYYYAMDYWGQGTSVTVSS VL: ENVLTQSPAIMSASPGEKVTMTCRASSSVSSSYLHWYQQKSGASPKLWIYSTSNLAFGVPARFSGSGSGTSYSLTISSVEAEDAATYYCQQYSGYPLTFGSGTKLEIK",–,0.0757,3.43,0.741,0.0234,–
"humanized 17B10 H3L2 (antibody, mouse IgG1, V domains shown, Chimeric Fc: human CH1, mouse IgG1 CH2 and CH3) VH: QVQLVQSGPEVKKPGESLKISCKASGYAFSSYWLNWVRQMPGKGLEWMGRIYPGDGDTDYNGKFKGQVTISADKSSGTAYLQLSSLKASDTAVYFCVRGDGYWAMDYWGQGTLVTVSS VL: DIVMTQTPLSLPVTPGEPASISCRFSQSLLHSNGITYLYWYLQKPGQSPQLLIYTMSNLASGVPDRFSGSGSGTDFTLKISRVEAEDVGVYYCAQNLELPWTFGGGTKLEIK",–,–,–,–,–,"M2 gate, % of cells [6]: 96.7%"
"Recombinant parental 16E4 with a human CH1 domain and mouse IgG1 CH2 and CH3 Fc domains (antibody, V domains shown) VH: QVQLQQPGAELVKPGASVKLSCKASGYTFTSYWMHWVKQRPGQGLEWIGEIDPSASYTYYNQKFKGKATLTVDKSSSTAYMQLSSLTSEDSAVYYCARSVYYGNKYFDVWGAGTTVTVSS VL: not shown",–,0.14,0.314,0.174,0.0629,–
"10B1 (antibody, V domains shown, Mouse hybridoma monoclonal antibody) VH: QVQLKQSGPGLVQPSQSLSITCTVSDFSLSSFGVNWVRQPPGKGLEWLGVIWSGGSTDYNVAFISRLSISKDNSKSQVFFKMNNLQADDTAIYYCARNWRYDGYFYAMDYWGQGTSVTVSS VL: DIVMTQSQKFMSTSTGDRVSVTCKASQNVGTNVAWYQQKPGQSPKALIYSASYRFIGVPDRFTGSGSGTDFTLTITNVQSEDLAEYFCQQYNRNPITFGSGTKLEIK",–,–,–,–,–,"M3 gate, % of cells positive for MMRN2 after the antibody [7]: 47.2%; M3 gate, % of cells positive for MMRN2 after the antibody [8]: 29.4%; M3 gate, % of cells [9]: 97.3%; Kd [10]: 0.904 nM; koff [10]: 0.000116 s⁻¹; kon [10]: 128000 M⁻¹ s⁻¹"
